Laboratory results as given in patent publication US20220033501A1 (SHANGHAI PHARMAEXPLORER, published 2022).

Tests used:
[1] = molecular target: T1, TIM-3 protein on human peripheral blood mononuclear lymphocytes (PBMC) (human, UniProt Q8TDQ0 22-301); test: cell-based or functional assay
T1 sequence: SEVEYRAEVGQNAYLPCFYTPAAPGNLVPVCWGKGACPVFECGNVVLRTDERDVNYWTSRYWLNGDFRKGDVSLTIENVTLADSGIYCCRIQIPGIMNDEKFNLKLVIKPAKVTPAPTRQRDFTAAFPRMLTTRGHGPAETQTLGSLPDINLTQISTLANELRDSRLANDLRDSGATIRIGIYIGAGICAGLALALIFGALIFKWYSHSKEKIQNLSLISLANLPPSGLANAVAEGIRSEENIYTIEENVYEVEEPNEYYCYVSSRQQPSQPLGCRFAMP

[2] = molecular target: T2, murine TIM-3 extracellular domain protein with hFc tag (mTIM-3-hFc) (mouse, UniProt Q8VIM0 29-191); test: ELISA, coated mouse TIM-3 ECD protein, 0 nM antibody
T2 construct: also called mouse TIM-3 extracellular domain protein; not shown: human IgG Fc fragment (hFc) of the pCpC vector
T2 chain: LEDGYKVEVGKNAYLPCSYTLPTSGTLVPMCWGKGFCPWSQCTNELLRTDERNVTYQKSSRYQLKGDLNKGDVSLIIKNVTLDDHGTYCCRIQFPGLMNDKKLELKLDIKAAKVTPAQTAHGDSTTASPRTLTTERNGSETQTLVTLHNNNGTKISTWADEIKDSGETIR

[3] = molecular target: T3, human TIM-3 extracellular domain protein with hFc tag (hTIM-3-hFc) (human, UniProt Q8TDQ0 22-200); test: ELISA, coated human TIM-3 ECD protein, 0.0067 nM antibody
T3 construct: not shown: human IgG Fc fragment (hFc) of the pCpC vector
T3 sequence: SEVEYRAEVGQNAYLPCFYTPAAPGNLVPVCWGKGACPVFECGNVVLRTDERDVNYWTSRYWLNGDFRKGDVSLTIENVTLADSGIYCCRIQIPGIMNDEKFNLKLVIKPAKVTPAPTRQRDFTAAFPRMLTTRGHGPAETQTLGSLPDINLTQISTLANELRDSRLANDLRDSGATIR

[4] = molecular target: T2, murine TIM-3 extracellular domain …; test: ELISA, coated mouse TIM-3 ECD protein, 0.0001 nM antibody
[5] = molecular target: T2, murine TIM-3 extracellular domain …; test: ELISA, coated mouse TIM-3 ECD protein, 6.6667 nM antibody
[6] = molecular target: T4, monkey TIM-3 extracellular domain protein with hFc tag (cTIM-3-hFc) (monkey); test: ELISA, coated monkey TIM-3 ECD protein, 66.667 nM antibody
T4 construct: not shown: human IgG Fc fragment (hFc) of the pCpC vector
T4 chain: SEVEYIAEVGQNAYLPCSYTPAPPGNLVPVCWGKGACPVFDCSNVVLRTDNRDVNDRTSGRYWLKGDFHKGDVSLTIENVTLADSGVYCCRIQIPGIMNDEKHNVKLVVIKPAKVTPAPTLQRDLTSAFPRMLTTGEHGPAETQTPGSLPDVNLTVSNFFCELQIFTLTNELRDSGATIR

Binder | IFN-γ production (donor X); antibody 0.1 µg/ml, N = 1 [1] [pg/mL] | IFN-γ production (donor X); antibody 0.1 µg/ml, N = 2 [1] [pg/mL] | IFN-γ production (donor X); antibody 1 µg/ml, N = 1 [1] [pg/mL] | IFN-γ production (donor X); antibody 1 µg/ml, N = 2 [1] [pg/mL] | IFN-γ production (donor X); antibody 10 µg/ml, N = 1 [1] [pg/mL] | IFN-γ production (donor X); antibody 10 µg/ml, N = 2 [1] [pg/mL] | IFN-γ production (donor X); antibody '0' (4th head as printed), N = 1 [1] [pg/mL] | IFN-γ production (donor X); antibody '0' (4th head as printed), N = 2 [1] [pg/mL] | IFN-γ production (donor X); antibody '0' (5th head as printed), N = 1 [1] [pg/mL] | IFN-γ production (donor X); antibody '0' (5th head as printed), N = 2 [1] [pg/mL] | OD450 [2] | OD450 [3] | OD450 [4] | OD450 [5] | OD450 [6]
7A4F10 fully human TIM-3 antibody (human IgG4, kappa) (antibody, V domains shown) VH: EVQLLESGGGLVQPGGSLRLSCAASGFTFRTHLISWVRQAPGKGLEWVAAITGSGGSTYYADSVKGRFIISRDNSKNTLFLQMNSLRAEDTAVYYCAKDGGSGSYDDFWGQGTLVTVSS VL: ETVLTQSPVTLSLSPGERATLSCRASQSVGSYLAWYQQKPGQAPRLLIYDASNRATGIPARFSGSGSGTDFTLTISSLEPEDFAVYYCQQRSNWPPTFGQGTKVEIK | 2930 | 2730 | 2920 | 2780 | 2900 | 2360 | 2340 | 2370 | 2290 | 2230 | 0.23 | 0.32 | 0.22 | 0.36 | 3.26
215A8F2 fully human TIM-3 antibody (human IgG4, kappa) (antibody, V domains shown) VH: QVQLQQWGAGLLKPSETLSLTCTVYGGSFSGYYWNWIRQPPGKGLEWLGEINHSGSTNYNPSLKRRVTISVDTSKNQFSLKLSSVTAADTAVYYCARVYYYGPFDFWGQGTLVTVSS VL: not shown | 2410 | 3170 | 2780 | 2030 | 3000 | 2470 | 2100 | 2300 | 1970 | 2400 | 0.21 | 0.27 | 0.21 | 0.38 | 3.24
18D2H2 fully human TIM-3 antibody (human IgG4, kappa) (antibody, V domains shown) VH: EVQLVESGGDLVQPGGSLRLSCAASGFTFSTYWMTWVRQAPGRGLEWVANIKQDGSAKYYVDSVKGRFTLSRDDAKNSLYLQMNSLRAEDTAVYYCARGSNWFDYWGQGTLVTVSS VL: ETVMTQSPATLSVSPGERATLSCRANQNVYSNLAWYQQKPGQAPRLLIYDASTRATGFPARFSGSGSGTEFTLTISSLQSEDFAVYYCQQYNNWPLTFGGGTKVEIK | 2660 | 2650 | 3000 | 3140 | 2810 | 3070 | 2280 | 2590 | 2340 | 2170 | 0.22 | 0.32 | 0.21 | 0.31 | 3.27
39E5H1 fully human TIM-3 antibody (human IgG4, kappa) (antibody, V domains shown) VH: EVQLVESGGGLVQPGGSLRLSCAASGFTFSSYWMSWVRQAPGKGLEWVANIKRGGSERYYVDSVKGRFTISGDNAKNSVYLQMNSLRAEDTAVYYCARGSNWFDPWGQGTLVTVSS VL: ETVMTQSPAILSVSPGERATLSCRASQSVYSNLAWYQQKLGQAPRLLIYDASTRATGIPARFSGSGSGTEFTLTISSLQSEDFAVYYCQQYNNWPITFGQGTRLEIK | 2700 | 2880 | 3070 | 3000 | 3150 | 3130 | 2580 | 2460 | 2190 | 2370 | 0.24 | 0.25 | 0.23 | 0.41 | 3.38
34B6D8 fully human TIM-3 antibody (human IgG4, kappa) (antibody, V domains shown) VH: EVQLVESGGGLVQPGGSLRLSCAASGFTFSTYWMTWVRQAPGKRLEWVANIKQGGGDKYYVDSVKGRFTISTDNAKNSLYLQMNSLRAEDTAVYYCARGSNWFDPWGQGTLVTVSS VL: EIVMTQSPATLSMSPGERATLSCRASQSVYDNLAWYQQKPGQAPRLLIYGASTRATGIPARFSGSGSGTEFTLTISSLQSEDFALYYCQQYTHWPITFGQGTRLEIK | 2770 | 2820 | 2930 | 3550 | 2980 | 3330 | 2600 | 2540 | 2280 | 2390 | 0.24 | 0.29 | 0.23 | 0.44 | 3.39
